Source: the DeepSol protein solubility set

Assay: soluble on expression in E. coli; label from the status in PepcDB or PDB records

Sequence | soluble on expression in E. coli
MLNLRGVEIRKGALDGPAQARLIEALRPVLKAAPLFTPTMPNGKPLSVRMTSAGSLGWVTDKGGYRYQPTHPKGMAWPAIPPEVLDLWHGVTGQDRAPDCCLINYYGEGARMGLHQDRDEADLTWPVVSLSLGDDALFRIGNTSRGGKTESVWLNSGDVVVMGGPARLIYHGIDRIRFGSSRLLPKGGRLNLTLRVAGLEHHHHHH | not soluble
MLNNDVLRSLRYLLDLPDAHLAELAARFGEQVEADLLEAYLKKEDEDGFQACPDRYLARCLDGLIIQRRGRDESRPLPPLELPLSNNMILKKLRVAFELKEEDLHAILDSVDFPVSKPELSALFRKPGHSNYRTCGDQLLRNFLKGLTLRVRG | not soluble
MLNVVKRDGRQVVFDSNKIFNAIKGAADEIGYDIKQSDILELTQKVIGRVEDLKIREISVEEVQNLVEEVLLENGNKEIGMAYCTYRKERTKVRE | not soluble
MLPFDPSTRYDRQVRLWGEEGQASIGSTSACVLGSDSLATEILKSLVLAGVQSFYVVDDAKVEQADIGQNFFLHADDIGRSRAEATLEKLTELNPSVSGSASSQPPTALAMEDVEKLTTFSVVVAANQNEEIDTTFAKVLYNIRVPFICIKTFGLIGTIRICIKEHTIANSHEENPRPDLRLDAPFSKLIEMINETNLDEMTLEQLRHTPYILLHFKALEVFRKQRNDPEAFPSTTAERKELQAILMSFRRSSEESGTKDSENFDEAKAAVIRAFQRTTIGSSVKSILSSPQCSTSTRPFWLICEALRRFVTENNNLLPLRGTLPDMTSDSSRYTRLATLFHEKALSDAQEVLRLTREVEKERGVGDVISDDVCYRFCKNADRIRVQYGDVLDYNEETKAIVEKIRESNIDEETRNQKVDEATWMLLMRAVGRFQKEKGRYPGTNGVPVSIDAQDLKKRVEVLIREALKDEQDFTSISNKVTDTAIAEICRFGAAELHVISSYVGGIAAQEIIKLATNQYVPIDNTFIFDGHTQESATFKF | not soluble
MLPINRQQHILKWLKEEGSLRISDISARFGVSEMTVYRDVNQLVQSNQVIKTAGGITLPVRTPQTDHMCSYCLKPVNQAHSVQLITVNQDIEQLCCAHCAFLRYADKTEEVSHLICRDFLLQTTVSAGSAYFVVNAELNLHCCQPQAIPFATLDHAERFQKGFGGAVCTFDQALEDMLQDRKKRCTCTKK | soluble
MLQCYNCPNPTADCKTAVNCSSDFDACLITKAGLQVYNKCWKFEHCNFNDVTTRLRENELTYYCCKKDLCNFNEQLENC | soluble
MLQINRHILDNGLRLVHAQDTSTQMVALNILYNVGARDENPEHTGFAHLFEHLMFGGSVNIPDYDAPLQLAGGENNAWTNNDITNYYLTVPRQNVETGFWLESDRMLSLDFSERSLEVQRGVVMEEFKQRCLNQPYGDVGHLLRPLAYRVHPYQWPTIGKELSHIANATLEEVKDFFFRFYAPNNAVLAVTGNISFEEALHLTEKWFGPIPRREVPLRQLPPEPVQTEERRLVVERNVPLDSLFMAYHMCDRADSDYYAFDILSDILSNGRSSRLNQHLVQEKQLFSSIDAYISGTLDAGLFHISGKPAAGVSLEEAEAAVREELNELQSALIQEQELEKVKNKFESTQIFGNINYLNVATNLAWFELNGRAEDMEKEVERYRAVTADRLNAVAQTAFREENGVVLYYKSSRGEKDETYI | not soluble
MLQRTLAKSISVTGVGLHSGERVALTLHPAPENSGISFRRTDLDGEMGEQIKLTPYLINDTRLSSTIVTDKGVRVGTIEHIMSALSAYGIDNALIELNAPEIPIMDGSSLPFIYLLQDAGVVDQKAQKRFLKILKPVEIKEAGKWVRFTPYDGFKVTLTIEFDHPVFNRSSPTFEIDFAGKSYIDEIARARTFGFMHEVEMMRAHNLGLGGNLNNAIVIDDTDVLNPEGLRYPDEFVRHKILDAIGDLYIVGHPIIGAFEGYKSGHAINNALLRAVLADETAYDRVEFADSDDLPDAFHELNIRTCGLEHHHHHH | not soluble
MLQVCCYTSEGYKYAVGIDLVRFFDTVNHSFLLRILSRTINDGRVISLIHKYLTSGVMIGKHYEPSIEGTPQGAPLSPLLSNILLNELDKELERRGHCFVRYADDSMILCKSKRSAERVCSSITDFSFYFTKGKCRLCVHKTTKEKFKRKVKSLTRRSNSMGYAQRKEILWQTFRGWIGYFKYADMRSLLIPLDQWYRRHLRMCIWKCWKRVKTRFSNLQKCGIPKGKA | not soluble
MLQVLGRLINILFPLLRFILGIWWEKLRGKDPTVSRAKAIQLRELLTNLGPTYIKVGQALSTRPDLVPPVFLDELTTLQDQLPSFPNEVAYRFIEEELGAPAEEIYAELEHHHHHH | not soluble
MLRATNNRRTSNNVEKDSLQMAKHGNGPLKPVNAQGLQTKREAREILALKPSNPAPVETAQKSQRINLQDAETKCLAMADDIYKYLVHHEKKYLLEECFMEGGEPTPKMRRILVDWLVQVHVRFHLTPETLHLTVFILDRMLQKKVTSKADLQLLGISAMFVASKFEEVYLPDIHDYEFITENTYSKKQILAMEQTILNSLNFDLSCPSSLVFLRCLSRILSENDASPIDNQAFCYTYNISKCLGELALLDSVMASTPRSHIASASMIIALEVHPVDGIEAENAVSVICKQLGASKKVIEDAVALLAEVSYKNFKQGKLVAIKNKYQSSKLAQVSNLMTDDVLEKINRMGQNAKVDASEME | soluble
MLRCADGALYTGVSTDVARRYRQHQAGKGARYTRLNPPLAVELVIEYPDRSAALRAEHAFKRLSAAAKRDFLRAHGDAGPSSLEHHHHHH | not soluble
MLRDLRETDVKAICDINQEALGYTFSPEETASQLARLSQDSHHFLLGYEDAANHVLLGYVHAEVYESLYSKAGFNILALAVSPQAQGQGIGKSLLQGLEEEAKRCGYGFIRLNSANHRLGAHAFYEKVGYTCDKMQKRFIRIC | not soluble
MLRIAKEALTFDDVLLVPAHSTVLPNTADLSTQLTKTIRLNIPMLSAAMDTVTEARLAIALAQEGGIGFIHKNMSIERQAEEVRRVKKHESGVVTDPQTVLPTTTLHEVKALTERNGFAGYPVVTEDNELVGIITGRDVRFVTDLNQPVSVYMTPKERLVTVREGEAREVVLAKMHEKRVEKALVVDDNFHLLGMITVKDFQKAERKPNSCKDEQGRLRVGAAVGAGAGNEERVDALVAAGVDVLLIDSSHGHSEGVLQRIRETRAKYPDLQIIGGNVATGAGARALAEAGCSAVKVGIGPGSICTTRIVTGVGVPQITAVSDAVEALEGTGIPVIADGGIRFSGDIAKAIAAGASAVMVGSMLAGTEESPGEIELYQGRSYKSYRGMGSLGAMSKGSSDRYFQSDNAADKLVPEGIEGRVAYKGRLKEIIHQQMGGLRSCMGLTGCATIDELRTKAEFVRISGAGIQESHVHDVTITKESPNYRLGS | not soluble
MLRISRDLVIDEDDIEIGFVRASGPGGQNVNKVATSAQLRFDTRKLTLPEDATIRLARIAGQRMTKDGVIVIHAQRFRTQERNRQDAIDRLVEILSEAMIRPKPRRATRPTFGSKQRRLEGKKRRSDVKAGRGRSFDDLEHHHHHH | soluble
MLRKADIKDLNACLSLFEQSVKTLCAKDYTKDQICAWIKIDRQQWEEKFKYDEIFVYEKRGKIASFISVKQEQKLLDLLFTHPDFVRQGLAQNLLDFILKTYLHNEIYTFASLSAKDFFLKNGFELIRENKVIKEGQNLKKILMKKDVIYKN | not soluble
MLRKQARQRREYLYNKALTERLKSKQKIQETVVKSINENKAIGSKNVKKSLTAYKSLKYADEGVDDRTVNDEYHYAGCEDPKIMLTTSHNPSSRLKMFMKELRLIIPNAQQMNRGNYQLTTLMHACRANNVTDFLIVHEHRGIPDSLVVCHLPYGPTAFFNISDVVMRHDIPDIGHMSEQKPHLIFNNFKTPIGLRTVKILKHLFPVPKENSQRVMSFLNHNDSIIFRHHQYKYVNKELELTEVGPRFSLKLYQIKLGTLENIKAADTEWINRPYMNTSQKRLIFSNDPGIINKDTEALEHHHHHH | soluble
MLRLFKIQKAPLSQFSKASNEIVKDFIEKMEKAAGSGDKVKFSDCFTEDFQFFACSFTANKAQFVEKHLTNPNPEPVIPKYSNFDENDSKIKFTVSRRVGPEVNIVDFDLLRENDGPWRLQWGKVTTCP | not soluble
MLRRKPTRLELKLDDTEEFESVKKELESRKKQRDEVDVVGVATSSEMSGAAGGTADGKTREQMIHERIGYKPHPKPNTLPSLFGNLQF | soluble
MLRSFTIRTAKRDEMIDITSFVEETVRQANVTEGIAVVYCPHTTAGITINENADPDVKRDMMRRFDETYPWEHPLDRHMEGNTAAHMKASTVGASQHVIIHEGRLLLGRWQGVYFCEYDGPRHRTFYVKVIGG | not soluble
MLRSTVIVTAHRRKAFIKDAIESVMENSLKPTEIIVVKNFKDYQIDSFLETYHVKNIYTDDETLGGKISLGIYQSSGDILFFLDDDDLFSKDKIREVIYKFSKYDIGFYHNAQEVIHNKLTGSNLSTDNQRFMYYTSIDTRRLKELLYKFKAGFNGSSIVISRDLAMRCVDLLKNVNISVDTFLLFCAVENNLPIMIDFRKLTYYRIIMSQNSNTEVNDKLFKMLYEDALYFKQIFSSKALRDFIEMSIIQHDFLYKIISKKEISKRDALISMVKMLRYSLKYPNKWNFFLQGLSLLSVFSAEKSRSLYLKKVRSNSMLSILEHHHHHH | soluble
MLRYFRAFLPKEERFFDLFAQHTHTVVQGAQALQDMLRGGDETLVHCQRVSHFESEADNITREVLTAVRRTFITPFDRVDIKNLITSMDDAIDQMQQTAKAVILFEVREFEPPMREIGTLLVESANLVGRAVPLMQSIGPNLQMLTAMTEEITKLEGRVDDLHDIGLKELFLKHRNANTMDYIVGAEIYDHLEKVADRFDDVANEINSIVIEQVAAALEHHHHHH | soluble
MLSGPHPSPTFRPNPCPWPCLHSLWMEISPTQLCFLSPGPSPQSPSCCFQGMNSGSELGKLWRKLFKGIPRLSVSHFDFYCGTCVLLGRPQIPQGSSLGNDIDQYPVVFRNASDQGSWMQLEMLLRKLSDLVWTSDALSDKILEDGLVP | soluble
MLSKGAVIDKLKSYKPCENCNGPISKTVSISDLNLDKRKRNCVCGNSQLDDVMLDVLNLMSEYNELQNTDLKDVTLRDAGTPLVEIGYPLKYLPVVSNDELIVMKDVSKACATEILKIPEVKGVISNNSKNNSFNRVEDSGEVNALIAGDDFRCDIFVLKSIMDCVVICKNQSKVHIEFPRPFNPKIAKIDRLNLKGKVVVDGFCGSGTLGLAALKKGAKKVIFSDINPHALKDVIYNLKLNFSKEVFDRIEIINSDFLNLDIVGDVCFVDLFPHMDKEPFLNKAKTISKQVVLILEHHHHHH | not soluble
MLSKRLLNFESFEVMDILALAQKLESEGKKVIHLEIGEPDFNTPKPIVDEGIKSLKEGKTHYTDSRGILELREKISELYKDKYKADIIPDNIIITGGSSLGLFFALSSIIDDGDEVLIQNPCYPCYKNFIRFLGAKPVFCDFTVESLEEALSDKTKAIIINSPSNPLGEVIDREIYEFAYENIPYIISDEIYNGLVYEGKCYSAIEFDENLEKTILINGFSKLYAMTGWRIGYVISNDEIIEAILKLQQNLFISAPTISQYAALKAFEKETEREINSMIKEFDRRRRLVLKYVKDFGWEVNNPIGAYYVFPNIGEDGREFAYKLLKEKFVALTPGIGFGSKGKNYIRISYANSYENIKEGLERIKEFLNK | soluble
